Experiment: yeast display, Sf9 membrane polyspecificity reagent, FACS + sequencing; frameworks hold sequencing errors
In short: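 Galactose-induced (36–48 hours) yeast carrying a synthetic nanobody display library were exposed to 10% biotinylated, detergent-solubilized Sf9 membrane reagent at 4 °C for 1 hour. FACS followed streptavidin microbead enrichment, using low and high (top ~1%) gates for expression (anti-HA) and reagent binding (streptavidin). Colony PCR, MiSeq 2 × 250 sequencing and CDR-length filtering followed. Labels for polyreactivity reflect the gate of origin.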

QVQLVESGGGLVQAGGSLRLSCAASGFIFSFNAMGWYRQAPGKERELVAAISRRGGRTYYADSVKGRFTISRDNAKNTVYLQMNSLKPEDTAVYYCAAQGRDSTPHGYWGQGTQVTVSS
polyreactivity (PSR sort gate): high polyreactivity

QVQLVESGGGLVQAGGSLRLSCAASGFIFSHYAMGWYRQAPGKERELVAAISRNGGSTYYADSVKGRFTISRDNAKNTVYLQMNSLKPEDTAVYYCAVDVSEWYHYDLYYWYYYWGQGTQVTVSS
polyreactivity (PSR sort gate): high polyreactivity

QVQLVESGGGLVQAGGSLRLSCAASGFIFSKNAMGWYRQAPGKERELVARITRRVGSTYYADSVKGRFTISRDNAKITVYLQMNSLKPEDTAVYYWAAVVHIQRSTRDYWGQGTQVTVSS
polyreactivity (PSR sort gate): high polyreactivity

QVQLVESGGGLVQAGGSLRLSCAASGFIFSKYAMGWYRQAPGKERELVAAITFSGGSTYYADSVKGRFTISRDNAKNTVYLQMNSLKPEDTAVYYCNAEGSYPDVSPVLGYDYWGQGTQVTVSS
polyreactivity (PSR sort gate): low polyreactivity

QVQLVESGGGLVQAGGSLRLSCAASGFIFSKYAMGWYRQAPGKERELVAAITSGGSTYYADSVKGRFTISRDNAKNTVYLQMNSLKPEDTAVYYCAADSYVPNLNYDYWGQGTQVNVSS
polyreactivity (PSR sort gate): low polyreactivity

QVQLVESGGGLVQAGGSLRLSCAASGFIFSKYAMGWYRQAPGKERELVASISTSGGSTYYADSVKGRFTISRDNAKNTVYLQMNSLKPEDTAVYYCAVASRSHGYKRAYYYWGQGTQVTVSS
polyreactivity (PSR sort gate): high polyreactivity

QVQLVESGGGLVQAGGSLRLSCAASGFIFSLYAMGWYRQAPGKERELVAAISKRGGSTNYADSVKGRFTISRDNAKNTVYLQMNSLKPEDTAVYYCAKARPGFLYDHWGQGTQVTVSS
polyreactivity (PSR sort gate): high polyreactivity

QVQLVESGGGLVQAGGSLRLSCAASGFIFSLYAMGWYRQAPGKERELVGAITRSGGSTYYADSVKGRFTISRDNAKNTVYLQMNSLKAEDTAVYYCAVSACYHYNYWGQGTQVTVSS
polyreactivity (PSR sort gate): high polyreactivity

QVQLVESGGGLVQAGGSLRLSCAASGFIFSNAMGWYRQAPGKERELVAAISRSGGSTYYADSVKGRFTISRDNAKNTVYLQMNSLKPEDTAVYYCGARSYPRSPVRYDYWGQGTQVTVSS
polyreactivity (PSR sort gate): high polyreactivity

QVQLVESGGGLVQAGGSLRLSCAASGFIFSNNAMGWYRQAPGKERELVAVINGGGSTYYADSVKGRFTISRDNAKNTVYLQMNSLKPEDTAFYYCARKSWPKERRVDPGYDYWGQGTQVTVSS
polyreactivity (PSR sort gate): low polyreactivity

QVQLVESGGGLVQAGGSLRLSCAASGFIFSPYDMGWYRQAPGKERELVAAISWRTGSTYYADSVKGRFTISRDNAKNTVYLQMNSLKPEDTAVYYCAARFIWSSYGRYDYWGQGTQVTVSS
polyreactivity (PSR sort gate): high polyreactivity

QVQLVESGGGLVQAGGSLRLSCAASGFIFSQYTMGWYRQAPGKERELVAAISFSDSSTFYADSVKGRFTISRDNAKNTVYLQMNSLKPEDTAVYYCAAEWGYRQRYFYATGGYWGQGTQVTVSS
polyreactivity (PSR sort gate): low polyreactivity

QVQLVESGGGLVQAGGSLRLSCAASGFIFSRNAMGWYRQAPGKERELVARISRSGGRTYYADSVKGRFTISRDNAKNTVYLLMNSLKPEDTAVYYCATDHVRQSPYDYWGQGTQVTVSS
polyreactivity (PSR sort gate): high polyreactivity

QVQLVESGGGLVQAGGSLRLSCAASGFIFSRYAMGWYRQAPGKEREFVAANSWSGGRTYYADSVKGRFTISRDNAKNTVYLQMNSLKPEDTAVYFCAARGYYPARHGTGGYWGQGTQVTVSS
polyreactivity (PSR sort gate): high polyreactivity

QVQLVESGGGLVQAGGSLRLSCAASGFIFSRYGMGWYRQAPGKERELVAAISRSGGSTYYADSVKGRFTISRDNAKNTVYLQMNSLKPEDTAVYYCATAYSWRNADWFAYSYDYWGQGTQVTVSS
polyreactivity (PSR sort gate): low polyreactivity

QVQLVESGGGLVQAGGSLRLSCAASGFIFSRYVMGWYRQAPGKERELVAAISRGGSTYYADSVKGRFTISRDNAKNTVYLQMNSLKPEDTAVYYCAVRSTRFLIYYPPYDYWGQGTQVTVSS
polyreactivity (PSR sort gate): high polyreactivity

QVQLVESGGGLVQAGGSLRLSCAASGFIFSSNAMGGYRQAPGTERELVATIDRDGGITYADSVKGRFTISRDNAKTTVYIQMNSLKPEDTEVYYCAADPSSYGRFTYDYWGQGTQVTVSS
polyreactivity (PSR sort gate): low polyreactivity

QVQLVESGGGLVQAGGSLRLSCAASGFIFSSYAKGWYRQAPGKERELVAVITRSGRRTYYADSVKGRFTISRDNAKNTFYLQMNSLKPEDTAVYYCNATLPNEVAPNDYWGQGTQVTVSS
polyreactivity (PSR sort gate): high polyreactivity

QVQLVESGGGLVQAGGSLRLSCAASGFIFSSYAKGWYRQAPGKETELVAAITSGGSTNYADSVKGRFTISRDNAKNTVYLQMNSLYPEDTAVYYCATVPGGSWFFHWWSTGGDDEYWGQGTQVTVSS
polyreactivity (PSR sort gate): low polyreactivity

QVQLVESGGGLVQAGGSLRLSCAASGFIFSSYAMGWYRQAPGKERELVAAISRSGGRTNYADSVKGRFTISRDNAKNTVYLQMNSLKPDDTAVYYCNARGRGKYPPYGYDYWGQGTQVTVSS
polyreactivity (PSR sort gate): high polyreactivity

QVQLVESGGGLVQAGGSLRLSCAASGFIFSSYAMGWYRQAPGKERELVAAITSGGSTNYADSVKGRFTISRDNAKNTVYLQMNSLKPEDTAVYYCATVPGRSWFFHWWSTGGDDEYWGQGTQVTVSS
polyreactivity (PSR sort gate): low polyreactivity

QVQLVESGGGLVQAGGSLRLSCAASGFIFSTNAMGWYRQAPGKERELVAAISRRGGNTYYADSVKGRFTISRDNAKNTVYLQMNSLKPEDTAVDYCNAVFRSGGLDYWGQGTQVTVSS
polyreactivity (PSR sort gate): high polyreactivity

Source: the nanobody polyreactivity screen of Harvey et al. (2022)
